For assay [1], the target named is T1, vascular endothelial growth factor (VEGF)-A121 (human, UniProt P15692-9 27-147).
T1 construct: mature; Purchased in mature form, not glycosylated
T1 sequence (looked up): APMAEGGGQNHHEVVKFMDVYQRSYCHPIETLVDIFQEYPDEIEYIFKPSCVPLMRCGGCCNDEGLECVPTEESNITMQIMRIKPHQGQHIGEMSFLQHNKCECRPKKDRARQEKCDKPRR
The assay is described as follows: ELISA, peptide coated. A digest of the protocol: (§1)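 Wells coated with 10 μg/mL laminin α3/α4/α5 LG-domain peptides, BSA-coated wells as non-binding control, blocked with 2% BSA PBS-T. Recombinant human GFs added at 1 μg/mL; bound GF detected with GF-specific biotinylated antibody plus streptavidin-HRP (n=4, mean±SEM).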
On the technique in general: ELISA stands for enzyme-linked immunosorbent assay.

The target of assay [2] is T2, placental growth factor (PlGF)-1 (human, UniProt P49763-2 19-149).
T2 construct: mature; Purchased in mature form
T2 sequence (looked up): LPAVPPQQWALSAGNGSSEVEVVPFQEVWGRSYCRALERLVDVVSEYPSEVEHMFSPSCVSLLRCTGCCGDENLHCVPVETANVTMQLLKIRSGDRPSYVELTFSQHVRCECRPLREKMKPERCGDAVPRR
The assay is described as follows: ELISA, peptide coated. A digest of the protocol: as §1

In assay [3] the target is T3, recombinant human syndecan-4 (human, UniProt P31431 19-145, limits assumed).
T3 construct: Histidine tag of unstated position and length
T3 sequence (looked up): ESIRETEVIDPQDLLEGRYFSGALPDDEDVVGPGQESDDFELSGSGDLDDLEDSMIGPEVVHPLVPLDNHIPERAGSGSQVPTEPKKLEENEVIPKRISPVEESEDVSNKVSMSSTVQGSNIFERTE
Briefly: ELISA, peptide coated, anti-His detection. How it is done: (§2) ELISA tests were performed as described above. In brief, ELISA plates were coated with 1 μg/mL laminin peptide (sequences are described in Table 1, chemically synthesized by Genscript) in PBS for 2 hrs at 37° C. 1 μg/mL of BSA served as non-binding protein control. After blocking with 2% BSA PBS-T solution, 1 μg/mL of the recombinant human syndecan-1, syndecan-2, syndecan-3, syndecan-4 (all syndecan proteins are histidine-tagged; SinoBiological) were added. Bound GF was detected with anti-histidine tag antibody (1:1000 dilution, BioLegend).

For assay [4], the target named is T4, recombinant human syndecan-3 (human, UniProt O75056 48-387, limits assumed).
T4 construct: Histidine tag of unstated position and length
T4 sequence (O75056 48-387 limits assumed): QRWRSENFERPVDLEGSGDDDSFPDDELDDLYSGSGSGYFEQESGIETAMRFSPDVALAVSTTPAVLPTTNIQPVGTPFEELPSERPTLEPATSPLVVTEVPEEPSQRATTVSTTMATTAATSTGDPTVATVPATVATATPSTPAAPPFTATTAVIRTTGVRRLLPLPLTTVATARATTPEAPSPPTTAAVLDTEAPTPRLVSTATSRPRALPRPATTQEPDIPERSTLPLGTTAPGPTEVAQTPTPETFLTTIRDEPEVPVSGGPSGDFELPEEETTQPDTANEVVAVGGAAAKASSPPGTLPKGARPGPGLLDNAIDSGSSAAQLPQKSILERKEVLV
Briefly: ELISA, peptide coated, anti-His detection. As for the experimental part:
as §2

The target in assay [5] is T5, recombinant human syndecan-1 (human, UniProt P18827 23-254, limits assumed).
T5 construct: Histidine tag of unstated position and length
T5 sequence (looked up): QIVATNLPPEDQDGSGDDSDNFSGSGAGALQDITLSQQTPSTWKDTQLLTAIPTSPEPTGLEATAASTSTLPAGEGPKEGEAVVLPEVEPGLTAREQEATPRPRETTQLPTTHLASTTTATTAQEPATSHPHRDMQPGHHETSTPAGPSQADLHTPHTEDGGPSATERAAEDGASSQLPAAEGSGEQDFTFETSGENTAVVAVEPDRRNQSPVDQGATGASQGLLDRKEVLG
The assay is described as follows: ELISA, peptide coated, anti-His detection. As for the experimental part:
as §2

Assay [6] has as its target T6, recombinant human syndecan-2 (human, UniProt P34741 19-144, limits assumed).
T6 construct: Histidine tag of unstated position and length
The assay is described as follows: ELISA, peptide coated, anti-His detection. How it is done: as §2

For assay [7], the target named is T7, platelet-derived growth factor (PDGF)-BB (human, UniProt P01127 82-190).
T7 construct: mature; Purchased in mature form
T7 sequence (P01127 82-190): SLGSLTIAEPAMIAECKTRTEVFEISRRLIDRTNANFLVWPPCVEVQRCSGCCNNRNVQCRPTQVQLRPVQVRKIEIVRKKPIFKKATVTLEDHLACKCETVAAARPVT
The assay is described as follows: ELISA, peptide coated, GF 1 µg/mL. A digest of the protocol: as §1

Assay [8] concerns the target T8, vascular endothelial growth factor (VEGF)-A165 (human, UniProt P15692-4 27-191).
T8 construct: mature; Purchased in mature form, not glycosylated
Briefly: ELISA, peptide coated, GF 1 µg/mL. A digest of the protocol: as §1

Assay [9] addresses T9, fibroblast growth factor (FGF)-2 (human, UniProt P09038 143-288).
T9 construct: mature; Purchased in mature form
The assay is described as follows: ELISA, peptide coated, GF 1 µg/mL. A digest of the protocol:
as §1

Assay [10] addresses T10, placental growth factor (PlGF)-2 (human, UniProt P49763-3 19-170).
T10 construct: mature; Purchased in mature form
T10 sequence (looked up): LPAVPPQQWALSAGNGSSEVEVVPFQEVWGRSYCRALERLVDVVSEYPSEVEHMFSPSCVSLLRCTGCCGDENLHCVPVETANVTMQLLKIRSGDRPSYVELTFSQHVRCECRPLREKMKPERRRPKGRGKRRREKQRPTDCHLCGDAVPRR
The assay is described as follows: ELISA, peptide coated, GF 1 µg/mL. A digest of the protocol:
as §1

Assay [11] concerns the target T11, recombinant human vWF A2 domain (human, UniProt P04275 1498-1665).
T11 construct: domain: A2
The assay is described as follows: ELISA, domain coated 50 nM. As for the experimental part:
(§3) ELISA was performed as previously reported1. […] After blocking with 2% BSA solution containing PBS-T, 1 μg/mL of recombinant human VEGF-A121 (PeproTech), recombinant human VEGF-A145 (R & D Systems), or recombinant human VEGF-A165 (PeproTech) was added. Bound VEGF-A was detected with 1 μg/mL of mouse anti-human VEGF-A antibody (clone: 26503, R & D systems). After 60 min of incubation, horseradish peroxidase (HRP) conjugated goat anti-mouse antibody (1:2000 dilution, Dako) was added and incubated for another 60 min. Color development and the absorbance measurement were done as described above.

Assay [12] addresses T12, recombinant human vWF A3 domain (human, UniProt P04275 1683-1874).
T12 construct: domain: A3
The assay is described as follows: ELISA, domain coated 50 nM. As for the experimental part: as §3

A further assay has as its target T13, human plasma-derived vWF (human, UniProt P04275 764-2813).
T13 construct: mature; also called plasma-derived purified vWF; von Willebrand factor
Briefly: ELISA, vWF coated 50 nM, VEGF-A 1 µg/mL. As for the experimental part:
as §3

In assay [13] the target is T14, recombinant human vWF A1 domain (human, UniProt P04275 1261-1468, limits assumed).
T14 construct: domain: A1; also called vWF A1 recombinant protein; recombinant A1 domain
The assay is described as follows: ELISA, domain coated 50 nM, VEGF-A 1 µg/mL. As for the experimental part: as §3

For another assay, the target named is T15, recombinant human BMP-2 (human, UniProt P12643 283-396).
T15 construct: also called rhBMP-2
T15 sequence (P12643 283-396 limits assumed): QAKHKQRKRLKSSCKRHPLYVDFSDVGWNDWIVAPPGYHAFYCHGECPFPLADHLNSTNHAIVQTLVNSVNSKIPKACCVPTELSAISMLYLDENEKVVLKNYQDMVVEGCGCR
Briefly: ELISA, rhBMP-2 coated 50 nM.

For assay [14], the target named is T7, platelet-derived growth factor (PDGF)-BB. The assay is described as follows: ELISA; growth factors coated at 100 nM, FabCol variants at 100 nM in solution, HRP-anti-human Fab [panel F].
The target of assay [15] is T8, vascular endothelial growth factor …. The description is as above.
The next assay concerns the target T16, mVEGF-C (mouse, UniProt P97953).
T16 construct: also called mouse wild-type VEGF-C
T16 sequence (growth factor chain, looked up): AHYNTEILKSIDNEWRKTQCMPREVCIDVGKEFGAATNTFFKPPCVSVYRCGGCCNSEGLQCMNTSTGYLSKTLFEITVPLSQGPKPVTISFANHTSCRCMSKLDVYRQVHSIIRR
The assay is described as above.

Assay [16] deals with T2, placental growth factor (PlGF)-1. The description is as above.
Assay [17] deals with T10, placental growth factor (PlGF)-2. The assay is described as above.
Assay [18] deals with T17, bovine type I collagen (bovine, UniProt P02453 178-1191; P02465 89-1102).
T17 construct: PureCol, Advanced BioMatrix; coated on the plate; also called collagen I; PureCol
T17 sequence (P02453 178-1191, chain 1 of 2): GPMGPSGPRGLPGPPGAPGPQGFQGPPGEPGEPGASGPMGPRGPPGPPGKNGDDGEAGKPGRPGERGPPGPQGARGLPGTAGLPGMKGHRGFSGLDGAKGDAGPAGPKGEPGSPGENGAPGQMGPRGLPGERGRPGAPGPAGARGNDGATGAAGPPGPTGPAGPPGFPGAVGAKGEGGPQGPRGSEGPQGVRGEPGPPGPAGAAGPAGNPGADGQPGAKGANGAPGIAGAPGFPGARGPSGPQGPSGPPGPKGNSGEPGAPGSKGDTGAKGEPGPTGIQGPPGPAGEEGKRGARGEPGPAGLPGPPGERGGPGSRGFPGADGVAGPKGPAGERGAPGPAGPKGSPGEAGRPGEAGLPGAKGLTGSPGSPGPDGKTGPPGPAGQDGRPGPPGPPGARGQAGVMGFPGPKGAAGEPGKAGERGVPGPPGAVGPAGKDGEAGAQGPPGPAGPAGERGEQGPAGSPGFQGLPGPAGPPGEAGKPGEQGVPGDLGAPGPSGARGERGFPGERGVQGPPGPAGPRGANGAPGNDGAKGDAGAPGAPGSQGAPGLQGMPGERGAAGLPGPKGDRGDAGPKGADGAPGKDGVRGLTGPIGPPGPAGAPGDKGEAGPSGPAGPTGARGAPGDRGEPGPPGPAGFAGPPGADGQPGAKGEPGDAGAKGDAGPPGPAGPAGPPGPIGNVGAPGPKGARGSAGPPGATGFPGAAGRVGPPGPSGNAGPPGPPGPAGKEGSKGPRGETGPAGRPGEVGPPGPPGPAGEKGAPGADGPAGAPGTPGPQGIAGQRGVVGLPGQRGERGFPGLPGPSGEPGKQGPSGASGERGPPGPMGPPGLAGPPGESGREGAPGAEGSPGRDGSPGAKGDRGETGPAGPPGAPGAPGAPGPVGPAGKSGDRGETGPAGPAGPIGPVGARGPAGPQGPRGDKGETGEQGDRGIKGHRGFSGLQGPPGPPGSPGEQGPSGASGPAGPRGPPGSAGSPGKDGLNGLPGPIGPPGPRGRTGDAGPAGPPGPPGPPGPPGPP
T17 sequence (P02465 89-1102, chain 2 of 2): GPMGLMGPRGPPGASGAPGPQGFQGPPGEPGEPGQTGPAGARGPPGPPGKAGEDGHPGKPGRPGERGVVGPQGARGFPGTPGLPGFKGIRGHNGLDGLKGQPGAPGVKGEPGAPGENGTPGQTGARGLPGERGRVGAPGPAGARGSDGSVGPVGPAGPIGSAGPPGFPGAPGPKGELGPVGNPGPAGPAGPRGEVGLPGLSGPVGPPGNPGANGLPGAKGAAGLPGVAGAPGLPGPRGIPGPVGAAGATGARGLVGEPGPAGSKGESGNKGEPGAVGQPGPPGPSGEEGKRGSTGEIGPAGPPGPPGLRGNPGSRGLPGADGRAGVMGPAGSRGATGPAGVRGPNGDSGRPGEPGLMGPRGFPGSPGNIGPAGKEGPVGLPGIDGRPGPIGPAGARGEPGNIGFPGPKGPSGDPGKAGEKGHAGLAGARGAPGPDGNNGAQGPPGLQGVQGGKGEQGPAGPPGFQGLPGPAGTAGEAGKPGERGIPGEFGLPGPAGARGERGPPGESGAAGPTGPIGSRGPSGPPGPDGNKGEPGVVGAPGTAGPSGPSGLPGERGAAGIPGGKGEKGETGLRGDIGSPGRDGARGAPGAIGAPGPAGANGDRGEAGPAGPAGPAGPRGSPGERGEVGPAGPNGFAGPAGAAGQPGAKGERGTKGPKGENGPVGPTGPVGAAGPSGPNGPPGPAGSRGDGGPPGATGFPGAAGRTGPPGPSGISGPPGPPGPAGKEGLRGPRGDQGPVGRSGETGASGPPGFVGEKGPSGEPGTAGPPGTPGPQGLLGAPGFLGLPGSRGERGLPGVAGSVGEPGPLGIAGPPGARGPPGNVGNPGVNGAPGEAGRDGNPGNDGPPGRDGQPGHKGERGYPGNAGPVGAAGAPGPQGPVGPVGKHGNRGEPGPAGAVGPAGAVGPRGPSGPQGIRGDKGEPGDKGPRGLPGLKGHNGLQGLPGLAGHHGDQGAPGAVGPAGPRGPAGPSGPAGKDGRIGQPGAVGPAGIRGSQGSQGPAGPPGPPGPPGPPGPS
The assay is described as follows: ELISA on coated bovine type I collagen (10 µg/mL), FabCol titrated 0.01-30 nM, HRP-anti-human Fab; table headed 'Estimated KD (nM)' [panel C]. How it is done: (§4) ELISA plates (NUNC MaxiSorp, ThermoFisher Scientific) were coated overnight with 10 μg/mL of bovine type I collagen (PureCol, Advanced BioMatrix, San Diego CA, USA) at room temperature. The plate was further blocked using 2% bovine serum albumine (BSA) for 2 h at room temperature. […] The plate was washed thrice in PBST, and an horseradish peroxidase-conjugated anti-human Fab antibody (Jackson ImmunoResearch,) was used to detect bound FabCol variants. […] Absorbance at 450 nm was read using […], and corrected using the absorbance at 570 nm. Curve fits and dissociation constant KD were computed using Prism (GraphPad Software Inc., USA).

Assay [19] has as its target T17, bovine type I collagen. Briefly: ELISA on coated bovine type I collagen (10 µg/mL), FabCol titrated, HRP-anti-human Fab [panel C]. How it is done:
as §4

Assay [20] has as its target T17, bovine type I collagen. Briefly: ELISA on coated bovine type I collagen (10 µg/mL), FabCol titrated 0.01-30 nM, HRP-anti-human Fab [panel C]. How it is done: as §4
Assay [21] has as its target T17, bovine type I collagen. The assay is described as follows: ELISA on coated bovine type I collagen (10 µg/mL), FabCol titrated, HRP-anti-human Fab; table headed 'Estimated KD (nM)' [panel C]. As for the experimental part:
as §4

The target of assay [22] is T1, vascular endothelial growth factor …. Briefly: ELISA, HBD peptide coated. How it is done:
(§5) ELISA tests were performed as described above. […] After blocking with 2% BSA solution containing PBS-T, 1 μg/mL of the recombinant human proteins VEGF-A121, VEGF-A165, PlGF-1, PlGF-2, PDGF-BB, FGF-2, CXCL-12α and CXCL-12γ were added. 1 μg/mL of BSA served as non-binding protein control. Bound GF or chemokine was detected with biotinylated antibodies for human VEGF-A, PlGF, PDGF-BB, FGF-2, or CXCL-12 (R & D Systems). The antibodies were detected by streptavidin-HRP (R & D Systems). Color development and the absorbance measurement were done as described above.

Assay [23] deals with T2, placental growth factor (PlGF)-1. The assay is described as follows: ELISA, HBD peptide coated. How it is done:
as §5

Broadly, the Kd is the concentration at which binding is half-saturated. As a reminder, the EC50 (read off the curve) is the concentration needed to bring the measured effect to its halfway point. Low readings indicate a more potent agent, high ones a less potent agent.

T6 sequence (P34741 19-144 limits assumed): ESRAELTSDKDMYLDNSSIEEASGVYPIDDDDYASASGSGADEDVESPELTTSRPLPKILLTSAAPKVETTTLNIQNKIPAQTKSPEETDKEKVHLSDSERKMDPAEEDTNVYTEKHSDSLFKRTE
T9 sequence (P09038 143-288): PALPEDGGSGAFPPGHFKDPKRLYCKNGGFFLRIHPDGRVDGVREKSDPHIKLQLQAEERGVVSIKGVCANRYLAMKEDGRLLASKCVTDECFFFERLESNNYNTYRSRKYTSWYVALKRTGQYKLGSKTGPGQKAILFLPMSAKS
Procedure for recombinant human BMP-2: ELISA plates (NUNC MaxiSorp) were coated with 50 nM of recombinant human BMP-2 (CHO produced, R&D Systems, Minneapolis MN, USA) overnight at room temperature.

Turning to TLPDVGLELEVR (Chemically synthesized (Genscript)) [laminin α5 3539-3550 peptide (LG5)], the binding result in assay [1], in assay [2], in [3], in assay [4], in [5] and in assay [6] was “no binding (tested: 1 µg/mL)” throughout. Also, the binding result in assay [7], in assay [8], in [9] and in assay [10] was “binds” throughout.

B1: recombinant human VEGF-A145 (ligand, UniProt P15692-6 27-171, looked up)
chain: APMAEGGGQNHHEVVKFMDVYQRSYCHPIETLVDIFQEYPDEIEYIFKPSCVPLMRCGGCCNDEGLECVPTEESNITMQIMRIKPHQGQHIGEMSFLQHNKCECRPKKDRARQEKKSVRGKGKGQKRKRKKSRYKSWSVCDKPRR
On to B1, for which the binding result is listed as “no binding (tested: 1 µg/mL)” in [11], “no binding (tested: 1 µg/mL)” in [12], “binds” with human plasma-derived vWF and “binds” in assay [13].

B2: FabCol (Fab)
light: EIVLTQSPGTLSLSPGERATLSCRASQSVSSSYLAWYQQKPGQAPRLLIYGASSRATGIPDRFSGSGSGTDFTLTISRLEPEDFAVYYCQQAIGFPQTFGQGTKVEIKRTVAAPSVFIFPPSDEQLKSGTASVVCLLNNFYPREAKVQWKVDNALQSGNSQESVTEQDSKDSTYSLSSTLTLSKADYEKHKVYACEVTHQGLSSPVTKSFNRGEC
heavy: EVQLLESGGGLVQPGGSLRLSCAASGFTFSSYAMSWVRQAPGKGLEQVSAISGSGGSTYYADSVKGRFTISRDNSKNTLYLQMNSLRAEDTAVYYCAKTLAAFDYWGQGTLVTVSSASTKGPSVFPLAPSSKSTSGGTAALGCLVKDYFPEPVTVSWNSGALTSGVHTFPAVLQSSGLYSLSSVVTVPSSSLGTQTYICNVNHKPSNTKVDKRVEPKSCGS
notes: Human Fab with human Fab constant regions; also called non-conjugated FabCol; anti-collagen I Fab (clone C11)
Turning to B2, the binding result in the assay with recombinant human BMP-2 is “no binding (tested: 50 nM)”; in assay [14] it was “no binding (tested: 100 nM (single concentration))”; in assay [15], “no binding (tested: 100 nM (single concentration))”; with mVEGF-C, “no binding (tested: 100 nM (single concentration))”; in assay [16], “no binding (tested: 100 nM (single concentration))”; in [17], “no binding (tested: 100 nM (single concentration))”. Further, the Kd in the assay with bovine type I collagen [18] is 0.9 nM; with bovine type I collagen [21] it was 0.3 nM. The half-maximal effective concentration (EC50 (read off the curve)) with bovine type I collagen [19] was ~0.2 nM; in the assay with bovine type I collagen [20], ~1 nM.

B3: vWF A1 HBD peptide (23 residues) (peptide)
peptide: YIGLKDRKRPSELRRIASQVKYA
notes: Chemically synthesized (Genscript); also called vWF HBD; vWF A1 peptide
Regarding B3, the binding result in assay [22] and in [23] was “no binding (tested: 1 µg/mL)” in each case.

The values are drawn from patent US20240092867A1 (UNIVERSITY OF CHICAGO, published 2024).
